Reference: IntAct's records for PubMed 22101932

B1: Coiled-coil quantitatively-enriched protein 1 (Schizosaccharomyces pombe (strain ATCC 38366 / 972)), Q10432 (parent)
chain: MSEINDFTNSIIINESDTKYEVYSEVNSSNRWIAKEDCPSPLEDVWLLKLAGHKRKLEEPLSCMRNEEPASKQREIEKFLRTDLDHSENDFLTQEVDEFPSTQQLFPIPLQNDTAFDSSEESITKSSKSSFSVLDIGLPMSALQRKMMHRLVQYFAFCIDHFCTGPSDSRIQEKIRLFIQSAHNIAKHPSLYDTEVRNPSAAESTNSHVSLDASNFSSYAENSSKFLFLQELFKNLSPSYSKTFFLFISNQFLANTLTQWLKSQNIDAELWAEEDAKTSQHPAIWICVSKKAPSASHFLQSCPDLSATIFYDIEAYMSVTSSLPSIQSLVLRLIHLGSIEHAIKCFQSSYNASFLVNIVGVVATLSSSSEENSEASNLSTLFEKSGNFEEILGSESHSSITEKTRDIAKNVATWLKNGENFSSWPLPPLMDLASLSVAEPRDSQPSVSQVNDTFVKSSDSTFPSSQSMQSPSKLHSLTSNATDLLSSSSLKKNFFSQQEADEVELSNNYDLQGAAVQYLQRRLRMVEDELHEAINSKNVQQSRSEELEQQISKLTDNLQEYRNTVRELKLDLEKSKKKNEDLSKLEVEKVEEIANLKKELTHLAKQQEFGFKYVQEFSNEDLQGKLIEANEKNYKLTQLLKTQKEDADFITNQYQNASTFAAEQSKEVAKLQAECKRLQAINSKVMEEVKVYNDSRVEALLAKVSSLEETLKILEQKSLPKFTPHNQSPRIIDSN
partner: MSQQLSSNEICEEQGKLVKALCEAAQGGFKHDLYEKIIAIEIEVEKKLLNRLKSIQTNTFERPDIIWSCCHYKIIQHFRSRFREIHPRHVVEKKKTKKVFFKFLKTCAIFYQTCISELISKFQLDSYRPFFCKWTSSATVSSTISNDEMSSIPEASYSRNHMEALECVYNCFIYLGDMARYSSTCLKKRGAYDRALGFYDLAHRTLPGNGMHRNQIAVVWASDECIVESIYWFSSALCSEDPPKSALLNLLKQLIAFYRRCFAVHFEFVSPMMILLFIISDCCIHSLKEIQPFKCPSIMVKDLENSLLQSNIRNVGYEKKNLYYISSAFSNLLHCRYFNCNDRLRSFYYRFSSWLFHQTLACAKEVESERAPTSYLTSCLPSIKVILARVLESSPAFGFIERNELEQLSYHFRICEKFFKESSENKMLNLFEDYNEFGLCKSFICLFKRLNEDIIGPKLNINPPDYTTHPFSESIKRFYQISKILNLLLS
B2: Telomere elongation protein est1 (Schizosaccharomyces pombe (strain ATCC 38366 / 972)), O74804 (parent)
chain: B1 partner
partner: B1 chain

Variants of: B1
Settings: with est1_schpo est1, O74804

Row | effect of a mutation on the interaction | Variant
1 | decreasing interaction | Q94A
2 | disrupting interaction | T93D

Variants of: B1
Settings: with est1_schpo est1, O74804
Remark: another data set of the same source

Row | effect of a mutation on the interaction | Variant
3 | disrupting interaction | Q94A
4 | disrupting interaction strength | T93D
5 | disrupting interaction strength | T93E
6 | disrupting interaction strength | T93A

Variants of: B2
Settings: with ccq1_schpo ccq1, Q10432

Row | effect of a mutation on the interaction | Variant
7 | decreasing interaction | MSQQLSSNEICEEQGKLVKALCEAAQGGFKHDLYEKIIAIEIEVEKKLLNRLKSIQTNTFERPDIIWSCCHYAIIQHFRSRFREIHPRHVVEKKKTKKVFFKFLKTCAIFYQTCISELISKFQLDSYRPFFCKWTSSATVSSTISNDEMSSIPEASYSRNHMEALECVYNCFIYLGDMARYSSTCLKKRGAYDRALGFYDLAHRTLPGNGMHRNQIAVVWASDECIVESIYWFSSALCSEDPPKSALLNLLKQLIAFYRRCFAVHFEFVSPMMILLFIISDCCIHSLKEIQPFKCPSIMVKDLENSLLQSNIRNVGYEKKNLYYISSAFSNLLHCRYFNCNDRLRSFYYRFSSWLFHQTLACAKEVESERAPTSYLTSCLPSIKVILARVLESSPAFGFIERNELEQLSYHFRICEKFFKESSENKMLNLFEDYNEFGLCKSFICLFKRLNEDIIGPKLNINPPDYTTHPFSESIKRFYQISKILNLLLS [K73A]
8 | decreasing interaction | MSQQLSSNEICEEQGKLVKALCEAAQGGFKHDLYEKIIAIEIEVEKKLLNRLKSIQTNTFERPDIIWSCCHYKIIQHFASRFREIHPRHVVEKKKTKKVFFKFLKTCAIFYQTCISELISKFQLDSYRPFFCKWTSSATVSSTISNDEMSSIPEASYSRNHMEALECVYNCFIYLGDMARYSSTCLKKRGAYDRALGFYDLAHRTLPGNGMHRNQIAVVWASDECIVESIYWFSSALCSEDPPKSALLNLLKQLIAFYRRCFAVHFEFVSPMMILLFIISDCCIHSLKEIQPFKCPSIMVKDLENSLLQSNIRNVGYEKKNLYYISSAFSNLLHCRYFNCNDRLRSFYYRFSSWLFHQTLACAKEVESERAPTSYLTSCLPSIKVILARVLESSPAFGFIERNELEQLSYHFRICEKFFKESSENKMLNLFEDYNEFGLCKSFICLFKRLNEDIIGPKLNINPPDYTTHPFSESIKRFYQISKILNLLLS [R79A]

Variants of: B2
Settings: with ccq1_schpo ccq1, Q10432
Remark: another data set of the same source

Row | effect of a mutation on the interaction | Variant
9 | disrupting interaction | MSQQLSSNEICEEQGKLVKALCEAAQGGFKHDLYEKIIAIEIEVEKKLLNRLKSIQTNTFERPDIIWSCCHYKIIQHFRSRFREIHPRHVVEKKKTKKVFFKFLKTCAIFYQTCISELISKFQLDSYRPFFCKWTSSATVSSTISNDEMSSIPEASYSRNHMEALECVYNCFIYLGDMAAYSSTCLKKRGAYDRALGFYDLAHRTLPGNGMHRNQIAVVWASDECIVESIYWFSSALCSEDPPKSALLNLLKQLIAFYRRCFAVHFEFVSPMMILLFIISDCCIHSLKEIQPFKCPSIMVKDLENSLLQSNIRNVGYEKKNLYYISSAFSNLLHCRYFNCNDRLRSFYYRFSSWLFHQTLACAKEVESERAPTSYLTSCLPSIKVILARVLESSPAFGFIERNELEQLSYHFRICEKFFKESSENKMLNLFEDYNEFGLCKSFICLFKRLNEDIIGPKLNINPPDYTTHPFSESIKRFYQISKILNLLLS [R180A]
10 | disrupting interaction | MSQQLSSNEICEEQGKLVKALCEAAQGGFKHDLYEKIIAIEIEVEKKLLNRLKSIQTNTFERPDIIWSCCHYKIIQHFASRFREIHPRHVVEKKKTKKVFFKFLKTCAIFYQTCISELISKFQLDSYRPFFCKWTSSATVSSTISNDEMSSIPEASYSRNHMEALECVYNCFIYLGDMAAYSSTCLKKRGAYDRALGFYDLAHRTLPGNGMHRNQIAVVWASDECIVESIYWFSSALCSEDPPKSALLNLLKQLIAFYRRCFAVHFEFVSPMMILLFIISDCCIHSLKEIQPFKCPSIMVKDLENSLLQSNIRNVGYEKKNLYYISSAFSNLLHCRYFNCNDRLRSFYYRFSSWLFHQTLACAKEVESERAPTSYLTSCLPSIKVILARVLESSPAFGFIERNELEQLSYHFRICEKFFKESSENKMLNLFEDYNEFGLCKSFICLFKRLNEDIIGPKLNINPPDYTTHPFSESIKRFYQISKILNLLLS [R79A;R180A]
11 | disrupting interaction | MSQQLSSNEICEEQGKLVKALCEAAQGGFKHDLYEKIIAIEIEVEKKLLNRLKSIQTNTFERPDIIWSCCHYKIIQHFASRFREIHPRHVVEKKKTKKVFFKFLKTCAIFYQTCISELISKFQLDSYRPFFCKWTSSATVSSTISNDEMSSIPEASYSRNHMEALECVYNCFIYLGDMARYSSTCLKKRGAYDRALGFYDLAHRTLPGNGMHRNQIAVVWASDECIVESIYWFSSALCSEDPPKSALLNLLKQLIAFYRRCFAVHFEFVSPMMILLFIISDCCIHSLKEIQPFKCPSIMVKDLENSLLQSNIRNVGYEKKNLYYISSAFSNLLHCRYFNCNDRLRSFYYRFSSWLFHQTLACAKEVESERAPTSYLTSCLPSIKVILARVLESSPAFGFIERNELEQLSYHFRICEKFFKESSENKMLNLFEDYNEFGLCKSFICLFKRLNEDIIGPKLNINPPDYTTHPFSESIKRFYQISKILNLLLS [R79A]
